# Results: the RNAGym collection of RNA variant scans (doi:10.1073/pnas.2313332121)
# B1: TPR t1 (parent)
# chain: GACCAAUCUGCCCUCAGAGCUCGAGAACAUCUUCGGAUGCAGAGGAGGCAGGCUUCGGUGGCGCGAUAGCGCCAACGUCCUCAACCUCCAAUGCAUCCCACCACAUGAUGAUGCCUGAAGAGCCUUGGUUUUUUG
# Variants of: B1
# Assay: polymerase ribozyme fitness, log enrichment relative to wild type (log ratio); higher = more active; in vitro selection for triplet polymerase activity
# In short: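 For each subunit of a heterodimeric triplet polymerase ribozyme, a mutant library was built by PCR and transcribed, then taken through a single in vitro selection round in triplicate. Selection involved annealing to a biotinylated primer, the partner subunit and triplets, incubation frozen at −7 °C, gel excision of extended constructs, capture on streptavidin beads and RT-PCR. Genotypes were retained after Illumina sequencing of inputs and outputs only with ≥10 input reads and ≥1 read in each output. Fitness is defined as the logarithm of a genotype's enrichment relative to wild-type enrichment, using inverse-variance-weighted averages across replicates, with the logarithm taken to base 2.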
row,Variant,polymerase ribozyme fitness (log ratio)
1,G47A G69A G77C C99U C114G,-6.85
2,A46C C104A A118U C123G,-1.15
3,G47C G61A,-0.75
4,G47U A90G,-0.297
5,G45U U78C,-1.46
6,G48A U59A C72G G120U G135A,-2.76
7,G48A A75G G120A,0.0402
8,A46C C53A C72A C86A C124G,0.771
9,A46U G107C,-6.11
10,G47C C56A G110U,-5.35
11,G45U U55C,-1.88
12,A46U A66C,-2.07
13,G47C A50C C72U C85G C88G C102U C123U,-7.42
14,G48C C79G,-4.27
15,G48C C79U C101A,-1.57
16,G47A G61A,-2.4
17,A46U C76A A84C A100C C124A,-4.99
18,G48A A50G G69U C76A U78C,-2.05
19,A46C G71C,-1.14
20,G45U G69U,-0.706
21,G45U U54G G77C C123G,0.415

row,Variant,polymerase ribozyme fitness (log ratio)
1,G45U G63U A84G,-3.63
2,A46U G128U,-3.23
3,G47C C62G G120C G128A,-5.53
4,A46U G48U U112G G135C,-3.81
5,G47U A66C A95C,-4.27
6,A46G C64U G110U C123G,-1.18
7,A46G G47A G52U,-2.7
8,G48A G61A,-0.0923
9,G47C C64U,-2.48
10,G48A C56U C82U,-0.312
11,A46U G63A,-1.91
12,G45U U59G A83G C115U,-5.27
13,G47A U59G A91U G113A,-2.02
14,A46U C89U G135U,-4.54
15,A46U G60C U96C C123G,0.53
16,G47A G58U G110U G120A,-3.22
17,A46U G122A,-2.16
18,G47C C102U U112C,-1.55
19,G47C A84C,-0.862
20,G45U G60C U125G U133A,-1.59
21,A46U C62G,-3.18

row,Variant,polymerase ribozyme fitness (log ratio)
1,A46U C62U,-1.12
2,A46C C56G,-1.37
3,G47U A91C G113A U130A,-3.79
4,G47U G61C,-2.36
5,G47U G61U,-2.36
6,G48A C82U U92A G110U,-6.7
7,G47C U55C C56A G69U C86U C123A U132A,-1.54
8,G48C C62A G65U U78C U130C,-4.95
9,G47A C88G U112G U133A,-5.65
10,G48A U59A G69C A84U A118C,-3.45
11,G48A C73A U92A C115U,-5.26
12,G45U G120A,-0.795
13,G45U G120C,-0.784
14,G47U C72U,-1.71
15,G47U G58A A83C,-2.55
16,A46U G127U,-2.62
17,A46U G127C,-2.68
18,A46U U106A C124G U129G,-0.0518
19,A46U G93U,-2.06
20,G47U A118G U130G,-3.01
21,A46C G47A A50G U129A,-3.12

row,Variant,polymerase ribozyme fitness (log ratio)
1,G47A G52A G61C G120A,-4.97
2,A46G C70G,-4.8
3,A46G C70A,-1.26
4,G48A C73U C82G,-0.747
5,A46U G93A A119G U132A,-1.15
6,A46G A95G,-0.108
7,A46U G113U,-3.73
8,A46C C76A C86U C104U,-0.577
9,G47C C49U,-2.12
10,G45U U112A G128C,-2.89
11,G47C C53U C70A C124A,-1.6
12,A46G C98U G117C,-5.69
13,G48A C64U U78C G107U,-6.15
14,G47A C82G U106A,-1.42
15,A46U U106A,-1.09
16,G45U U130G,-2.66
17,G48C A91C U92G G120A C124U U130C,-1.63
18,G47A A68G,-3.62
19,A46C G120A,-0.00915
20,G48C A74C,-0.603
